According to PMC6978714 (2019):
No end group written: not given here.

Molecular target: recombinant HLA-DRB1*01:01 protein (HLA-DR α chain with DRB1*01:01 β chain) (human)

| Binder | Kd [nM] |
| --- | --- |
| DAQGTLSKIFKLGGRDSRSGSPMAR (also: biotinylated, position not given here) [chemically synthesized biotinylated peptide MBP 146-170] | 52 |
| TQDENPVVHFFKNIVTPRTPPPSQ (also: biotinylated, position not given here) [chemically synthesized biotinylated peptide MBP 81-104] | 22 |

Results, then the binder that gave them:

| Kd [nM] | Binder |
| --- | --- |
| 103 | TQDENPVVHFFKNIVTPRTPPPSQ (not fully specified; also: thioredoxin-fused, end not given here, biotinylated chemically (EZ-Link Sulfo-NHS-LC-biotin, 1:20), position not given here) [thioredoxin-fused MBP 81-104 (MBP epitope library), biotinylated] |
| 101 | DAQGTLSKIFKLGGRDSRSGSPMAR (not fully specified; also: thioredoxin-fused, end not given here, biotinylated chemically (EZ-Link Sulfo-NHS-LC-biotin, 1:20), position not given here) [thioredoxin-fused MBP 146-170 (MBP epitope library), biotinylated] |
